Assay results published in US20240368354A1, “STEROID ACID-BASED HYDROGELS” (priority 2021, published 2024).
Where a SMILES comes first, the peptide text is derived from it. Bridges are numbered along the chain shown (N, C = ends). Roman numbers before positions name the chains, in order. Where no end group is shown, it is not given here. The star is where a group is joined. Chenodeoxycholyl = C[C@H](CCC(=O)*)[C@H]1CC[C@H]2[C@@H]3[C@H](O)C[C@@H]4C[C@H](O)CC[C@]4(C)[C@H]3CC[C@]12C; Cholyl = C[C@H](CCC(=O)*)[C@H]1CC[C@H]2[C@@H]3[C@H](O)C[C@@H]4C[C@H](O)CC[C@]4(C)[C@H]3C[C@H](O)[C@]12C

Legend:
[1] = test system: JIMT1 cells (breast cancer cell line); assay: Cell cytotoxicity assay (PrestoBlue); assay type: cell-based; details: for toxicity of dimer hydrogels compared with monomers: cells treated three days, PrestoBlue, dimers versus monomers
Method: 5000 JIMT1 cells (breast cancer cell line) per well (96-well plate) were plated. After one day, cells were treated with the different steroid acid-peptide conjugates or hydrogels for three days. Cell survival was determined by PrestoBlue™ following the manufacturer's protocol.
Hydrogels are commonly used for drug delivery and in vivo applications, and therefore assessing their safety profiles is highly pertinent. Cytotoxicity of hydrogels was evaluated via a cytotoxicity assay by incubating cells with hydrogels formed by monomers or steroid acid-peptide conjugates, as described in Example 1.

[2] = Hydrogel formation of steroid acid-peptide monomer conjugates upon resuspension in solvent; assay type: physicochemical; details: for hydrogel formation: 6.67 mg/ml, cell medium (complete DMEM with human cells), 2 hours of incubation
Method: Specific hydrogel formation was conducted by resuspending the powder of each steroid acid-peptide monomer or dimer conjugate in phosphate buffered saline (PBS) 1X (pH 7.4), pure water, complete cell medium (DMEM), DMSO, or alcohol:water mixtuLes (e.g., methanol:water (40:60)) at room temperature or 37° C. at a concentration between 6-30 mg/mL.
Hydrogel formation was evaluated upon dissolution of the different peptide or steroid acid-peptide conjugates described in FIG. 1 in different solvents. […] Hydrogel structure (soft vs. hard) and color/clarity (translucent vs. opaque) varied among the different conditions. […] At concentrations lower than 10 mg/mL, all steroid acid-hnRNPA1 NLS conjugates tested formed liquid droplets in PBS at room temperature. Monomers of GWG-SV40NLS conjugated to steroid acids were also shown to form hydrogels (data not shown).

[3] = monomers, room temperature and 37° C.

Molecule: CSCC[C@H](NC(=O)[C@@H]1CCCN1C(=O)CNC(=O)[C@H](Cc1ccccc1)NC(=O)[C@H](CC(N)=O)NC(=O)[C@H](CO)NC(=O)[C@H](CS)NC(=O)CC[C@@H](C)[C@H]1CC[C@H]2[C@@H]3[C@H](O)C[C@@H]4C[C@H](O)CC[C@]4(C)[C@H]3CC[C@]12C)C(=O)N[C@@H](CCCCN)C(=O)NCC(=O)NCC(=O)N[C@@H](CC(N)=O)C(=O)N[C@@H](Cc1ccccc1)C(=O)NCC(=O)NCC(=O)N[C@@H](CCCNC(=N)N)C(=O)N[C@@H](CO)C(=O)N[C@@H](CO)C(=O)NCC(=O)N1CCC[C@H]1C(=O)N[C@@H](Cc1ccc(O)cc1)C(N)=O [CDCA-hnRNPA1 M9 NLS] (Chenodeoxycholyl-CSNFGPMKGGNFGGRSSGPY-NH2)
- concentrations at which viability of cells was reduced ([1]; JIMT1 cells, three days treatment, hydrogels formed by monomers): higher than 10 μg/mL

Molecule: CSCC[C@H](NC(=O)[C@@H]1CCCN1C(=O)CNC(=O)[C@H](Cc1ccccc1)NC(=O)[C@H](CC(N)=O)NC(=O)[C@H](CO)NC(=O)[C@H](CSSC[C@H](NC(=O)CC[C@@H](C)[C@H]1CC[C@H]2[C@@H]3[C@H](O)C[C@@H]4C[C@H](O)CC[C@]4(C)[C@H]3CC[C@]12C)C(=O)N[C@@H](CO)C(=O)N[C@@H](CC(N)=O)C(=O)N[C@@H](Cc1ccccc1)C(=O)NCC(=O)N1CCC[C@H]1C(=O)N[C@@H](CCSC)C(=O)N[C@@H](CCCCN)C(=O)NCC(=O)NCC(=O)N[C@@H](CC(N)=O)C(=O)N[C@@H](Cc1ccccc1)C(=O)NCC(=O)NCC(=O)N[C@@H](CCCNC(=N)N)C(=O)N[C@@H](CO)C(=O)N[C@@H](CO)C(=O)NCC(=O)N1CCC[C@H]1C(=O)N[C@@H](Cc1ccc(O)cc1)C(N)=O)NC(=O)CC[C@@H](C)[C@H]1CC[C@H]2[C@@H]3[C@H](O)C[C@@H]4C[C@H](O)CC[C@]4(C)[C@H]3CC[C@]12C)C(=O)N[C@@H](CCCCN)C(=O)NCC(=O)NCC(=O)N[C@@H](CC(N)=O)C(=O)N[C@@H](Cc1ccccc1)C(=O)NCC(=O)NCC(=O)N[C@@H](CCCNC(=N)N)C(=O)N[C@@H](CO)C(=O)N[C@@H](CO)C(=O)NCC(=O)N1CCC[C@H]1C(=O)N[C@@H](Cc1ccc(O)cc1)C(N)=O [Dimerized CDCA-hnRNPA1 M9 NLS] (I: Chenodeoxycholyl-CSNFGPMKGGNFGGRSSGPY-NH2 / II: Chenodeoxycholyl-CSNFGPMKGGNFGGRSSGPY-NH2; disulfide I:1-II:1)
- cell viability ([1]; JIMT1 cells, three days treatment, all concentrations tested up to 100 μg/mL): Viability was maintained

Molecule: CC[C@H](C)[C@H](NC(=O)CNC(=O)[C@H](CSSC[C@H](NC(=O)CC[C@@H](C)[C@H]1CC[C@H]2[C@@H]3[C@H](O)C[C@@H]4C[C@H](O)CC[C@]4(C)[C@H]3C[C@H](O)[C@]12C)C(=O)NCC(=O)N[C@H](C(=O)NCC(=O)N[C@@H](C)C(=O)N[C@H](C(=O)N[C@@H](CC(C)C)C(=O)N[C@@H](CCCCN)C(=O)N[C@H](C(=O)N[C@@H](CC(C)C)C(=O)N[C@H](C(=O)N[C@H](C(=O)NCC(=O)N[C@@H](CC(C)C)C(=O)N1CCC[C@H]1C(=O)N[C@@H](C)C(=O)N[C@@H](CC(C)C)C(=O)N[C@H](C(=O)N[C@@H](CO)C(=O)N[C@@H](Cc1c[nH]c2ccccc12)C(=O)N[C@H](C(=O)N[C@@H](CCCCN)C(=O)N[C@@H](CCCNC(=N)N)C(=O)N[C@@H](CCCCN)C(=O)N[C@@H](CCCNC(=N)N)C(=O)N[C@@H](CCC(N)=O)C(=O)N[C@@H](CCC(N)=O)C(N)=O)[C@@H](C)CC)[C@@H](C)CC)[C@@H](C)O)[C@@H](C)O)C(C)C)C(C)C)[C@@H](C)CC)NC(=O)CC[C@@H](C)[C@H]1CC[C@H]2[C@@H]3[C@H](O)C[C@@H]4C[C@H](O)CC[C@]4(C)[C@H]3C[C@H](O)[C@]12C)C(=O)NCC(=O)N[C@@H](C)C(=O)N[C@H](C(=O)N[C@@H](CC(C)C)C(=O)N[C@@H](CCCCN)C(=O)N[C@H](C(=O)N[C@@H](CC(C)C)C(=O)N[C@H](C(=O)N[C@H](C(=O)NCC(=O)N[C@@H](CC(C)C)C(=O)N1CCC[C@H]1C(=O)N[C@@H](C)C(=O)N[C@@H](CC(C)C)C(=O)N[C@H](C(=O)N[C@@H](CO)C(=O)N[C@@H](Cc1c[nH]c2ccccc12)C(=O)N[C@H](C(=O)N[C@@H](CCCCN)C(=O)N[C@@H](CCCNC(=N)N)C(=O)N[C@@H](CCCCN)C(=O)N[C@@H](CCCNC(=N)N)C(=O)N[C@@H](CCC(N)=O)C(=O)N[C@@H](CCC(N)=O)C(N)=O)[C@@H](C)CC)[C@@H](C)CC)[C@@H](C)O)[C@@H](C)O)C(C)C)C(C)C [dimerized CA-Melittin]
- toxicity of dimer hydrogels compared with monomers [1]: significantly less toxic

Molecule: CSCC[C@H](NC(=O)[C@H](CSSC[C@H](NC(=O)CC[C@@H](C)[C@H]1CC[C@H]2[C@@H]3[C@H](O)C[C@@H]4C[C@H](O)CC[C@]4(C)[C@H]3C[C@H](O)[C@]12C)C(=O)N[C@@H](CCSC)C(=O)NCC(=O)N[C@@H](CCCNC(=N)N)C(=O)N[C@H](C(=O)N[C@@H](CCCNC(=N)N)C(=O)N[C@H](C(=O)N[C@@H](CCCCN)C(=O)N[C@H](C(=O)N[C@H](C(=O)N[C@@H](CCCCN)C(=O)N[C@@H](CCCCN)C(=O)N[C@@H](C)C(=O)N[C@@H](C)C(=O)NCC(=O)NCC(N)=O)C(C)C)[C@@H](C)O)[C@@H](C)O)C(C)C)NC(=O)CC[C@@H](C)[C@H]1CC[C@H]2[C@@H]3[C@H](O)C[C@@H]4C[C@H](O)CC[C@]4(C)[C@H]3C[C@H](O)[C@]12C)C(=O)NCC(=O)N[C@@H](CCCNC(=N)N)C(=O)N[C@H](C(=O)N[C@@H](CCCNC(=N)N)C(=O)N[C@H](C(=O)N[C@@H](CCCCN)C(=O)N[C@H](C(=O)N[C@H](C(=O)N[C@@H](CCCCN)C(=O)N[C@@H](CCCCN)C(=O)N[C@@H](C)C(=O)N[C@@H](C)C(=O)NCC(=O)NCC(N)=O)C(C)C)[C@@H](C)O)[C@@H](C)O)C(C)C [dimerized CA-NLS1 RPS17] (I: Cholyl-CMGRVRTKTVKKAAGG-NH2 / II: Cholyl-CMGRVRTKTVKKAAGG-NH2; disulfide I:1-II:1)
- toxicity of dimer hydrogels compared with monomers [1]: significantly less toxic

Molecule: CA-Melittin: cholic acid conjugated to the peptide melittin (SEQ ID NO: 16)
- hydrogel formation in monomer form [2]: not able to form a hydrogel

Molecule: CA-NLS1 RPS17: cholic acid conjugated to NLS1 RPS17 peptide (SEQ ID NO: 9) (MGRVRTKTVKKAAGG; also: cholic acid conjugate, site not given here)
- hydrogel formation in monomer form [2]: not observed to form a hydrogel

Molecule: GCDCA-hnRNPA1 NLS: glycochenodeoxycholic acid (GCDCA) conjugated to hnRNPA1 M9 NLS peptide (SEQ ID NO: 4) (SNFGPMKGGNFGGRSSGPY; also: glycochenodeoxycholic acid (GCDCA) conjugate, site not given here)
- time after which hydrogel formation was induced ([2]; monomer, final concentration 6.67 mg/mL, complete DMEM containing human cells, room temperature and 37° C.): 30 min
- hydrogel formation [2, 3]: formed a hydrogel

Molecule: GDCA-hnRNPA1 NLS: glycodeoxycholic acid (GDCA) conjugated to hnRNPA1 M9 NLS peptide (SEQ ID NO: 4) (SNFGPMKGGNFGGRSSGPY; also: glycodeoxycholic acid (GDCA) conjugate, site not given here)
- hydrogel formation [2, 3]: formed a hydrogel

Molecule: GUDCA-hnRNPA1 NLS: glycoursodeoxycholic acid (GUDCA) conjugated to hnRNPA1 M9 NLS peptide (SEQ ID NO: 4) (SNFGPMKGGNFGGRSSGPY; also: glycoursodeoxycholic acid (GUDCA) conjugate, site not given here)
- incubation time after which a hydrogel formed ([2]; 20 mg/ml in pure water, room temperature): 1 to 3 h
- hydrogel formation [2, 3]: formed a hydrogel

Molecule: LCA-hnRNPA1 NLS: lithocholic acid (LCA) conjugated to hnRNPA1 M9 NLS peptide (SEQ ID NO: 4) (SNFGPMKGGNFGGRSSGPY; also: lithocholic acid (LCA) conjugate, site not given here)
- hydrogel formation following resuspension ([2]; monomers, 25 mg/mL in PBS 1X (pH 7.4), room temperature): a hydrogel spontaneously formed within a matter of seconds
